Where two headings read alike, the source gives them in different places.

The target of test [1] is Actin (Oryctolagus cuniculus) (UniProt P68135). The following applies: cited from earlier work.
Test [2] has the same target. The following applies: cited from earlier work. This is another data set of the same source.
Test [3] addresses actin filaments (UniProt P68135). The test is described as follows: co-sedimentation.
Test [4] shares this target. Briefly: co-sedimentation. This is another data set of the same source.

Turning to “Dystrophin DysN-R17 (from UniProt P11531)”, the equilibrium dissociation constant (Kd) in test [1] was 760 nM. For the substance Dystrophin (from UniProt P11531), in test [2], the Kd was 300 nM. In the test with actin filaments [3], DP260 isoform of dystrophin showed a Kd of 6850 nM.

Consider full-length dystrophin, P11531 1-3678, for which the equilibrium dissociation constant (Kd) with actin filaments [4] worked out at 152 nM; with actin filaments [3], 110 nM.

As a reminder, the Kd is a measure of binding affinity in units of concentration.

Values taken from publication PMC3273627.
